In patent US20050037432:

Target: T1, Alpha-2-Macroglobulin
T1 chain: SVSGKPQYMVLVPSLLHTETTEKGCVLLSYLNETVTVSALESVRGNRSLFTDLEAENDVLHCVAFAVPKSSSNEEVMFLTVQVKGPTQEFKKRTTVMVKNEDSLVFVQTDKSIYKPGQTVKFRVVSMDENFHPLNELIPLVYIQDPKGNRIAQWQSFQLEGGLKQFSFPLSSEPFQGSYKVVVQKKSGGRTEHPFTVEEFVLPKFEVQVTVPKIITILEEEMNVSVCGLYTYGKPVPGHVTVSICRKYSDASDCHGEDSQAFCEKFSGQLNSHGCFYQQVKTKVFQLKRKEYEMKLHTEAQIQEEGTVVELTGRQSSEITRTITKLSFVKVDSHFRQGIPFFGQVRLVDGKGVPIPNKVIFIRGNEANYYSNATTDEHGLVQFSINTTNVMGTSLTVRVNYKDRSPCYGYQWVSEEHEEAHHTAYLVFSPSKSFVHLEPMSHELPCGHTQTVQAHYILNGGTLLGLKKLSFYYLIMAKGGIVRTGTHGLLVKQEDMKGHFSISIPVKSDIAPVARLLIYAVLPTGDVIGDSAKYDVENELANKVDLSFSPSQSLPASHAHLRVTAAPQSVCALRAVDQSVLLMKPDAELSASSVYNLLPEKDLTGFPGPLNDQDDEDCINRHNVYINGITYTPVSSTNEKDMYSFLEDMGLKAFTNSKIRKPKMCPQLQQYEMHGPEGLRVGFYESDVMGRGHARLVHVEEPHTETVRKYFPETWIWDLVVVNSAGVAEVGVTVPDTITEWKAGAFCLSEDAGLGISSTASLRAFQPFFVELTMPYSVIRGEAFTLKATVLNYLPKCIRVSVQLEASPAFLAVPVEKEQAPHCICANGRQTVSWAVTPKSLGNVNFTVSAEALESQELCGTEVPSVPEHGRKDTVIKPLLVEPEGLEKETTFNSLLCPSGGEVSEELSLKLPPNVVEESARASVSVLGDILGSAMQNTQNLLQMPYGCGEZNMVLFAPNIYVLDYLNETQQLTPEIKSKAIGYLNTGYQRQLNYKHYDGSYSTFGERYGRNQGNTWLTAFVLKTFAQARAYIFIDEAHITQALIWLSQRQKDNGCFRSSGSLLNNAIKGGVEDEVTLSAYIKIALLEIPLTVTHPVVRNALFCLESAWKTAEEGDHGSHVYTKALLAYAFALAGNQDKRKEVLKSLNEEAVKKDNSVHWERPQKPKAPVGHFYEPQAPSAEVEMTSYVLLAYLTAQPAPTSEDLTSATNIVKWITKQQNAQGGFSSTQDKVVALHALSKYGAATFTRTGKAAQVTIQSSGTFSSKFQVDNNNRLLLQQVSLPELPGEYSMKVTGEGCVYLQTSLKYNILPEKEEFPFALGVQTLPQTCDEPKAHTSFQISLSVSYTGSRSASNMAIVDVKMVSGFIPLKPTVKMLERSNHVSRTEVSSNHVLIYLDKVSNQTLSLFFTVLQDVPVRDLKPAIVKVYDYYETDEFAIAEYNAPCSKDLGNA

B1: ADAMTS-5 (protein)
chain: SISRARQVELLLVADASMARLYGRGLQHYLLTLASIANRLYSHASIENHIRLAVVKVVVLGDKDKSLEVSKNAATTLKNFCKWQHQHNQLGDDHEEHYDAAILFTREDLCGHHSCDTLGMADVGTICSPERSCAVIEDDGLHAAFTVAHEIGHLLGLSHDDSKFCEETFGSTEDKRLMSSILTSIDASKPWSKCTSATITEFLDDGHGNCLLDLPRKQILGPEELPGQTYDATQQCNLTFGPEYSVCPGMDVCARLWCAVVRQGQMVCLTKKLPAVEGTPCGKGRICLQGKCVDKTKKKYYSTSSHGNWGSWGSWGQCSRSCGGGVQFAYRHCNNPAPRNNGRYCTGKRAIYRSCSLMPCPPNGKSFRHEQCEAKNGYQSDAKGVKTFVEWVPKYAGVLPADVCKLTCRAKGTGYYVVFSPKVTDGTECRLYSNSVCVRGKCVRTGCDGIIGSKLQYDKCGVCGGDNSSCTKIVGTFNKKSKGYTDVVRIPEGATHIKVRQFKAKDQTRFTAYLALKKKNGEYLINGKYMISTSETIIDINGTVMNYSGWSHRDDFLHGMGYSATKEILIVQILATDPTKPLDVRYSFFVPKKSTPKVNSVTSHGSNKVGSHTSQPQWVTGPWLACSRTCDTGWHTRTVQCQDGNRKLAKGCPLSQRPSAFKQCLLKKC
generation of α2M neoepitopes on digestion (50 ng α2M, 100 ng enzyme, 37° C., 1-30 min): Both neoepitopes were generated as early as after 2 minutes of incubation, and increased over time, up to after 30 minutes of incubation

B2: ADAMTS-4 (protein)
chain: FASLSRFVETLVVADDKMAAFHGAGLKRYLLTVMAAAAKAFKHPSIRNPVSLVVTRLVILGSGEEGPQVGPSAAQTLRSFCAWQRGLNTPEDSDPDHFDTAILFTRQDLCGVSTCDTLGMADVGTVCDPARSCAIVEDDGLQSAFTAAHELGHVFNMLHDNSKPCISLNGPLSTSRHVMAPVMAHVDPEEPWSPCSARFITDFLDNGYGHCLLDKPEAPLHLPVTFPGKDYDADRQCQLTFGPDSRHCPQLPPPCAALWCSGHLNGHAMCQTKHSPWADGTPCGPAQACMGGRCLHMDQLQDFNIPQAGGWGPWGPWGDCSRTCGGGVQFSSRDCTRPVPRNGGKYCEGRRTRFRSCNTEDCPTGSALTFREEQCAAYNHRTDLFKSFPGPMDWVPRYTGVAPQDQCKLTCQAQALGYYYVLEPRVVDGTPCSPDSSSVCVQGRCIHAGCDRIIGSKKKFDKCMVCGGDGSGCSKQSGSFRKFRYGYNNVVTIPAGATHILVRQQGNPGHRSIYLALKLPDGSYALNGEYTLMPSPTDVVLPGAVSLRYSGATAASETLSGHGPLAQPLTLQVLVAGNPQDTRLRYSFFVPRPTPSTPRPTPQDWLHRRAQILEILRRRPWAGRK
generation of α2M neoepitopes on digestion (50 ng α2M, 100 ng enzyme, 37° C., 1-30 min): Both neoepitopes were generated as early as after 2 minutes of incubation, and increased over time, up to after 30 minutes of incubation
